Source: publication PMC10247859, “Replisome-cohesin interactions provided by the Tof1-Csm3 and Mrc1 cohesion establishment factors” (Chromosoma, 2023)
Each block holds one binder with its values, some of them ahead of it.

Columns and labels:
Conditions in all cases: both partners purified
[1] = target: T1, Tof1 (S. cerevisiae (budding yeast), UniProt P53840 1-1238); test: cross-linking; CLMS with sulfo-SDA; cohesin, Tof1-Csm3 and Chl1 with or without Mrc1 at 300-350 nM, 30 °C 5 min, cross-linker 2 h at 4 °C, UV 365 nm; LC-MS/MS, 1% FDR at residue-pair level; two samples merged
T1 construct: Tof1, budding yeast; the Tof1 chain of m2; Stood in the cross-linking sample as a chain of the Tof1-Csm3 complex; source: purified as part of Tof1-Csm3, as previously described (Yeeles et al. 2017)
T1 sequence (looked up): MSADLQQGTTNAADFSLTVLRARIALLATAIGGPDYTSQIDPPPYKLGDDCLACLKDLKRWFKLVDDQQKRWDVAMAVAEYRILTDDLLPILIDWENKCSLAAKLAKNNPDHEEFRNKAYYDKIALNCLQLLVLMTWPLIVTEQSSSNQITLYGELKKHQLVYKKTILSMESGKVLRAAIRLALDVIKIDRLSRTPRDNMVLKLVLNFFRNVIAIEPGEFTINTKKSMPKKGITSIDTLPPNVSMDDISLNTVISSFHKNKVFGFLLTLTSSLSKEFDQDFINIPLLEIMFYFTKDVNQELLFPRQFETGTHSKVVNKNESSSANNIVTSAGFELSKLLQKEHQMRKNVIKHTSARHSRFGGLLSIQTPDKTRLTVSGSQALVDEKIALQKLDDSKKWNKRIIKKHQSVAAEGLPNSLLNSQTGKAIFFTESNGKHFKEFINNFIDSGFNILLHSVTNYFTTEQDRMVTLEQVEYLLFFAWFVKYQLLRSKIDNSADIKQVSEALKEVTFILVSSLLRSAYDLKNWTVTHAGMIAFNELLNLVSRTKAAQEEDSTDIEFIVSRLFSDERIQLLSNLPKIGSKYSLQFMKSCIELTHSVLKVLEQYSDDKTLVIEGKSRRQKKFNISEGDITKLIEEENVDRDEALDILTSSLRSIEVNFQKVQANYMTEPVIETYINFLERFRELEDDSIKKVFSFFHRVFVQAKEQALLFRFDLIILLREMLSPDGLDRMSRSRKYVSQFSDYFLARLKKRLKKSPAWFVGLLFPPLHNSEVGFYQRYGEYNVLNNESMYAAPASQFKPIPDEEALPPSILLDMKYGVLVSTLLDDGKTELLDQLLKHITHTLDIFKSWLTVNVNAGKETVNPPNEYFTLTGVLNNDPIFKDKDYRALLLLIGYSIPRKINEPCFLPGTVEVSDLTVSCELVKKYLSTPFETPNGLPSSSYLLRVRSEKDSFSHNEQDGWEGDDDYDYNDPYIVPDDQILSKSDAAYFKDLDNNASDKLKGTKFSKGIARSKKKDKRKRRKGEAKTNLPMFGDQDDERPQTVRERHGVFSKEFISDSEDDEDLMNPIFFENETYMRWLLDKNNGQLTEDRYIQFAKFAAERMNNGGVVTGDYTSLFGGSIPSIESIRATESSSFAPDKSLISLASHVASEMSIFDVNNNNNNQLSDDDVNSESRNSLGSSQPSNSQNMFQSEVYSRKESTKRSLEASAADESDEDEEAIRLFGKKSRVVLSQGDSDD

[2] = target: T2, Tof1-Csm3 complex (S. cerevisiae (budding yeast), UniProt P53840 1-1238; Q04659 1-317); test: pull-down; Flag-tagged Chl1 (200-600 nM) held on anti-Flag M2 magnetic beads; Tof1-Csm3 as prey; interaction buffer
T2 construct: Tof1, budding yeast; Csm3, budding yeast; Held on calmodulin dynabeads when used as bait; source: purified as previously described (Yeeles et al. 2017)

[3] = target: T3, cohesin tetramer complex (Smc1-Smc3-Scc1-Scc3) (S. cerevisiae (budding yeast), UniProt P32908 1-1225; P47037 1-1230; Q12158 1-566; P40541 1-1150); test: pull-down; cohesin tetramer (200-600 nM) held on Protein A dynabeads by anti-Pk antibody (Pk tag on Smc1); 200 nM prey, 30 °C, 5 min; 25 mM HEPES-KOH pH 7.6, 100 mM potassium glutamate, 10 mM magnesium acetate, 0.12% NP-40; SDS elution, Coomassie staining
T3 construct: Smc1, cohesin subunit, budding yeast; Smc3, cohesin subunit, budding yeast; Scc1, cohesin subunit, budding yeast; Scc3, cohesin subunit, budding yeast; also called cohesin complex; source: purified as previously described (Minamino et al. 2018): IgG agarose, 3C protease cleavage; copies: + + +
T3 sequence (Q12158 whole entry, chain 3 of 2): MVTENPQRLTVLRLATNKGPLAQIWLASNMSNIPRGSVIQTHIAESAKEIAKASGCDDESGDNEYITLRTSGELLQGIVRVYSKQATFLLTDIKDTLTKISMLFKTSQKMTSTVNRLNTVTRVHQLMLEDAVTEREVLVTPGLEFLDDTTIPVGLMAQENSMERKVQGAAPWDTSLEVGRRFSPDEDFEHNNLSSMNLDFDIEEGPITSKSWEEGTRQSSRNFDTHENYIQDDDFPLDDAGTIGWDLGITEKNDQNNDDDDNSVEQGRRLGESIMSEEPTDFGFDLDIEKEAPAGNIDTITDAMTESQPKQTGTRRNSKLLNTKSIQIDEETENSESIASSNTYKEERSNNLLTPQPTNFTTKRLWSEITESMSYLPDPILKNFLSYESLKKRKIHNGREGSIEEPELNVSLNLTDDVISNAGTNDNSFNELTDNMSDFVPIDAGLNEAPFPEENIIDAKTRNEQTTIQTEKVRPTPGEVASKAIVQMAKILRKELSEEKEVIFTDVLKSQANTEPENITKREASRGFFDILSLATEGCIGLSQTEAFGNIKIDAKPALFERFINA
T3 sequence (P40541 whole entry, chain 4 of 2): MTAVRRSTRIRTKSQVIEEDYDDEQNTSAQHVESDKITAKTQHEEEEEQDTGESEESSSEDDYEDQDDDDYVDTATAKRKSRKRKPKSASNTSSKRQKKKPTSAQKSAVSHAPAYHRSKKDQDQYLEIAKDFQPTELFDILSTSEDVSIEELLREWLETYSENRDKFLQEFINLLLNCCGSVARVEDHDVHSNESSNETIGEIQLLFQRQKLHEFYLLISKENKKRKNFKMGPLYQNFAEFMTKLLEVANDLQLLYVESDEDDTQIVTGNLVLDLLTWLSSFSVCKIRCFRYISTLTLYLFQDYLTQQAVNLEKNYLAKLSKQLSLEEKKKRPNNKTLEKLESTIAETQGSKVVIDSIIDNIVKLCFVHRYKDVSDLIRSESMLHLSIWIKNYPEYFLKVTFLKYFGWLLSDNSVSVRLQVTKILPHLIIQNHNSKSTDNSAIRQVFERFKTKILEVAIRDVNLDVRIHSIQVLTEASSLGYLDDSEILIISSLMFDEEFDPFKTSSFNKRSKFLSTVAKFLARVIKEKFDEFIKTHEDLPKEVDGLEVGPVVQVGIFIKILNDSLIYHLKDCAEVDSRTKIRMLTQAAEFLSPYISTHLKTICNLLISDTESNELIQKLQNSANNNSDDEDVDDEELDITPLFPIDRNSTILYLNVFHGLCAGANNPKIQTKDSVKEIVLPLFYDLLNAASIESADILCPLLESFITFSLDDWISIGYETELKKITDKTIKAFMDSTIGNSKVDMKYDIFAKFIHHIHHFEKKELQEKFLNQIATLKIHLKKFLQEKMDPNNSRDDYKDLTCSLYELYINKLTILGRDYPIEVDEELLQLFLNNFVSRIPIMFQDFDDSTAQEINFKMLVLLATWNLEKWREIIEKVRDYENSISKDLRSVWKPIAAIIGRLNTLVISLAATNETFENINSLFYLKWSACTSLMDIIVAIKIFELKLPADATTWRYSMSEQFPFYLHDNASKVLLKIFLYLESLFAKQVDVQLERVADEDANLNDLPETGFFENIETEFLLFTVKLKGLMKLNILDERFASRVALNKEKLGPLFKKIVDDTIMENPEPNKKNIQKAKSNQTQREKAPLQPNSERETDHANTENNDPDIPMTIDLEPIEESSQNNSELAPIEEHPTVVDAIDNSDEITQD

binding result [1]: binds
B1: Csm3 (natural protein, S. cerevisiae (budding yeast), UniProt Q04659 1-317, looked up)
chain: MDQDFDSLLLGFNDSDSVQKDPTVPNGLDGSVVDPTIADPTAITARKRRPQVKLTAEKLLSDKGLPYVLKNAHKRIRISSKKNSYDNLSNIIQFYQLWAHELFPKAKFKDFMKICQTVGKTDPVLREYRVSLFRDEMGMSFDVGTRETGQDLERQSPMVEEHVTSAEERPIVADSFAQDKRNVNNVDYDNDEDDDIYHLSYRNRRGRVLDERGNNETVLNNVVPPKEDLDALLKTFRVQGPVGLEENEKKLLLGWLDAHRKMEKGSMTEEDVQLIQSLEEWEMNDIEGQHTHYDLLPGGDEFGVDQDELDAMKEMGF
notes: Csm3, budding yeast; the Csm3 chain of m2; Stood in the cross-linking sample as a chain of the Tof1-Csm3 complex; source: purified as part of Tof1-Csm3, as previously described (Yeeles et al. 2017)

binding result [1]: binds
B2: Smc1 (natural protein, S. cerevisiae (budding yeast), UniProt P32908 1-1225, looked up)
chain: MGRLVGLELSNFKSYRGVTKVGFGESNFTSIIGPNGSGKSNMMDAISFVLGVRSNHLRSNILKDLIYRGVLNDENSDDYDNEGAASSNPQSAYVKAFYQKGNKLVELMRIISRNGDTSYKIDGKTVSYKDYSIFLENENILIKAKNFLVFQGDVEQIAAQSPVELSRMFEEVSGSIQYKKEYEELKEKIEKLSKSATESIKNRRRIHGELKTYKEGINKNEEYRKQLDKKNELQKFQALWQLYHLEQQKEELTDKLSALNSEISSLKGKINNEMKSLQRSKSSFVKESAVISKQKSKLDYIFKDKEKLVSDLRLIKVPQQAAGKRISHIEKRIESLQKDLQRQKTYVERFETQLKVVTRSKEAFEEEIKQSARNYDKFKLNENDLKTYNCLHEKYLTEGGSILEEKIAVLNNDKREIQEELERFNKRADISKRRITEELSITGEKLDTQLNDLRVSLNEKNALHTERLHELKKLQSDIESANNQEYDLNFKLRETLVKIDDLSANQRETMKERKLRENIAMLKRFFPGVKGLVHDLCHPKKEKYGLAVSTILGKNFDSVIVENLTVAQECIAFLKKQRAGTASFIPLDTIETELPTLSLPDSQDYILSINAIDYEPEYEKAMQYVCGDSIICNTLNIAKDLKWKKGIRGKLVTIEGALIHKAGLMTGGISGDANNRWDKEEYQSLMSLKDKLLIQIDELSNGQRSNSIRAREVENSVSLLNSDIANLRTQVTQQKRSLDENRLEIKYHNDLIEKEIQPKITELKKKLDDLENTKDNLVKEKEALQNNIFKEFTSKIGFTIKEYENHSGELMRQQSKELQQLQKQILTVENKLQFETDRLSTTQRRYEKAQKDLENAQVEMKSLEEQEYAIEMKIGSIESKLEEHKNHLDELQKKFVTKQSELNSSEDILEDMNSNLQVLKRERDGIKEDIEKFDLERVTALKNCKISNINIPISSETTIDDLPISSTDNEAITISNSIDINYKGLPKKYKENNTDSARKELEQKIHEVEEILNELQPNARALERYDEAEGRFEVINNETEQLKAEEKKILNQFLKIKKKRKELFEKTFDYVSDHLDAIYRELTKNPNSNVELAGGNASLTIEDEDEPFNAGIKYHATPPLKRFKDMEYLSGGEKTVAALALLFAINSYQPSPFFVLDEVDAALDITNVQRIAAYIRRHRNPDLQFIVISLKNTMFEKSDALVGVYRQQQENSSKIITLDLSNYAE
notes: Smc1, budding yeast; the Smc1 chain of m1; Stood in the cross-linking sample as a chain of cohesin; source: purified as part of cohesin, as previously described (Minamino et al. 2018)

binding result [2]: binds
binding result [3]: binds
B3: Chl1 (natural protein, S. cerevisiae (budding yeast), UniProt P22516 1-861, looked up)
chain: MDKKEYSETFYHPYKPYDIQVQLMETVYRVLSEGKKIAILESPTGTGKTLSLICATMTWLRMNKADIFTRMETNIKTNEDDSENLSDDEPDWVIDTYRKSVLQEKVDLLNDYEKHLNEINTTSCKQLKTMCDLDKEHGRYKSVDPLRKKRKGARHLDVSLEEQDFIPRPYESDSENNDTSKSTRGGRISDKDYKLSELNSQIITLLDKIDGKVSRDPNNGDRFDVTNQNPVKIYYASRTYSQLGQFTSQLRLPSFPSSFRDKVPDEKVKYLPLASKKQLCINPKVMKWKTLEAINDACADLRHSKEGCIFYQNTNEWRHCPDTLALRDMIFSEIQDIEDLVPLGKSLGICPYYASREALPIAEVVTLPYQYLLSESTRSSLQINLENSIVIIDEAHNLIETINSIYSSQISLEDLKNCHKGIVTYFNKFKSRLNPGNRVNLLKLNSLLMTLIQFIVKNFKKIGQEIDPNDMFTGSNIDTLNIHKLLRYIKVSKIAYKIDTYNQALKEEESSKNENPIKETHKKSVSSQPLLFKVSQFLYCLTNLTSEGQFFFEKNYSIKYMLLEPSKPFESILNQAKCVVLAGGTMEPMSEFLSNLLPEVPSEDITTLSCNHVIPKENLQTYITNQPELEFTFEKRMSPSLVNNHLFQFFVDLSKAVPKKGGIVAFFPSYQYLAHVIQCWKQNDRFATLNNVRKIFYEAKDGDDILSGYSDSVAEGRGSLLLAIVGGKLSEGINFQDDLCRAVVMVGLPFPNIFSGELIVKRKHLAAKIMKSGGTEEEASRATKEFMENICMKAVNQSVGRAIRHANDYANIYLLDVRYNRPNFRKKLSRWVQDSINSEHTTHQVISSTRKFFSMRSLNSR
notes: Chl1, budding yeast; codon-optimized ectopic copy; also called Flag-tagged Chl1; Chl1 helicase

binding result [1]: binds
B4: Smc3 (natural protein, S. cerevisiae (budding yeast), UniProt P47037 1-1230, looked up)
chain: MYIKRVIIKGFKTYRNETIIDNFSPHQNVIIGSNGSGKSNFFAAIRFVLSDDYSNLKREERQGLIHQGSGGSVMSASVEIVFHDPDHSMILPSGVLSRGDDEVTIRRTVGLKKDDYQLNDRNVTKGDIVRMLETAGFSMNNPYNIVPQGKIVALTNAKDKERLQLLEDVVGAKSFEVKLKASLKKMEETEQKKIQINKEMGELNSKLSEMEQERKELEKYNELERNRKIYQFTLYDRELNEVINQMERLDGDYNNTVYSSEQYIQELDKREDMIDQVSKKLSSIEASLKIKNATDLQQAKLRESEISQKLTNVNVKIKDVQQQIESNEEQRNLDSATLKEIKSIIEQRKQKLSKILPRYQELTKEEAMYKLQLASLQQKQRDLILKKGEYARFKSKDERDTWIHSEIEELKSSIQNLNELESQLQMDRTSLRKQYSAIDEEIEELIDSINGPDTKGQLEDFDSELIHLKQKLSESLDTRKELWRKEQKLQTVLETLLSDVNQNQRNVNETMSRSLANGIINVKEITEKLKISPESVFGTLGELIKVNDKYKTCAEVIGGNSLFHIVVDTEETATLIMNELYRMKGGRVTFIPLNRLSLDSDVKFPSNTTTQIQFTPLIKKIKYEPRFEKAVKHVFGKTIVVKDLGQGLKLAKKHKLNAITLDGDRADKRGVLTGGYLDQHKRTRLESLKNLNESRSQHKKILEELDFVRNELNDIDTKIDQVNGNIRKVSNDRESVLTNIEVYRTSLNTKKNEKLILEESLNAIILKLEKLNTNRTFAQEKLNTFENDLLQEFDSELSKEEKERLESLTKEISAAHNKLNITSDALEGITTTIDSLNAELESKLIPQENDLESKMSEVGDAFIFGLQDELKELQLEKESVEKQHENAVLELGTVQREIESLIAEETNNKKLLEKANNQQRLLLKKLDNFQKSVEKTMIKKTTLVTRREELQQRIREIGLLPEDALVNDFSDITSDQLLQRLNDMNTEISGLKNVNKRAFENFKKFNERRKDLAERASELDESKDSIQDLIVKLKQQKVNAVDSTFQKVSENFEAVFERLVPRGTAKLIIHRKNDNANDHDESIDVDMDAESNESQNGKDSEIMYTGVSISVSFNSKQNEQLHVEQLSGGQKTVCAIALILAIQMVDPASFYLFDEIDAALDKQYRTAVATLLKELSKNAQFICTTFRTDMLQVADKFFRVKYENKISTVIEVNREEAIGFIRGSNKFAEV
notes: Smc3, budding yeast; the Smc3 chain of m1; Stood in the cross-linking sample as a chain of cohesin; source: purified as part of cohesin, as previously described (Minamino et al. 2018)
